Measurements reported in patent publication US20200165340A1 (XIANGTAN TENGHUA BIOSCIENCE, published 2020).

Target: T1, human PD-L1 expressed at the cell membrane (human, UniProt Q9NZQ7 19-290)
T1 construct: whole, on cells; also called programmed death-ligand 1; cellular PD-L1 protein
Experiment: flow cytometry (FACS) titration on 293T cells stably transfected with human PD-L1, anti-mouse IgG PE detection

T1 sequence (Q9NZQ7 19-290): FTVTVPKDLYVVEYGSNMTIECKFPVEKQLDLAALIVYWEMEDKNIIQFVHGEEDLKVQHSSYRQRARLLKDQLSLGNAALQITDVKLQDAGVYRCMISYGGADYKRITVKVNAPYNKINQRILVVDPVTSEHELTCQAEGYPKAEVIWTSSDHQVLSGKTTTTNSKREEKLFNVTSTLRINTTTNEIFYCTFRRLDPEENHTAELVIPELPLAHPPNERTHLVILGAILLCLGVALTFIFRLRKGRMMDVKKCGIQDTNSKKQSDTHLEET

B1: anti-PD-L1 mouse monoclonal antibody Q106 (antibody, V domains shown)
VH: DVQLQESGPGLVKPSQSLSLTCSVTGYSITSDYAWNWIRQFPGDTLEWMGYINYSGSSTYNPSLISRLSITRDTSKNQFFLQLNSVTSEDTATYYCARGPDWDWYFDYWGQGTTLTVSS
VL: DIVLTQSPATLSVTPGDSVSLSCRASQSISNNLHWYQQKSHESPRLLIKYASQSISGIPSRFSGSGSGTDFTLSINGVETEDFGMYFCQQTNSWPTFGGGTKLEIK
notes: also called PD-L1 antibody Q106
Q: With B1 as the binder, how does the EC50 read?
A: 0.3 nM
